Consider eleven molecules from publication PMC11083479, “A Multi-Faceted Binding Assessment of Aptamers Targeting the SARS-CoV-2 Spike Protein”.

Where two headings read alike, the source gives them in different places.

In data set [1] the target is SARS-CoV-2 spike S1, WT, His-tag (SARS-CoV-2 (WT), UniProt P0DTC2 16-685). In words: BLI. The settings on record: protein: recombinant; tags: His; label: with or without biotin; SA-ATTO647N in flow cytometry. (Flow cytometry measures light scatter and fluorescence of single cells or particles in a stream.)
In data set [2] the target is T1, SARS-CoV-2 trimeric spike, WT, His-tag (SARS-CoV-2 (WT), UniProt P0DTC2 14-1208). In words: ELONA; abolished by 0.1 mg/mL dextran sulfate. The settings on record: protein: recombinant, tags: 8xHis (flow cytometry), chain copies: 3, label: with or without biotin, SA-ATTO647N in flow cytometry.
The target of data set [3] is SARS-CoV-2 spike RBD, WT, C-tag (SARS-CoV-2 (WT), UniProt P0DTC2 319-591). The data set can be described thus: BLI; BLI: PBS pH 7.4, 1 mM MgCl2 ([…]; flow cytometry 25 C ([…]. The settings on record: protein: recombinant; tags: C-tag; label: with or without biotin; SA-ATTO647N in flow cytometry. In general terms: BLI is a label-free optical method that tracks binding on a fibre tip over time.

The target of data set [4] is SARS-CoV-2 trimeric spike, WT, C-tag (SARS-CoV-2 (WT), UniProt P0DTC2 16-1208). The settings on record: protein: recombinant; tags: C-tag; chain copies: 3; label: with or without biotin; SA-ATTO647N in flow cytometry.
The target of data set [5] is chemokine CCL17, untagged (human, UniProt Q92583 24-94). In words: ELONA; 200 nM aptamer; BLI: PBS pH 7.4, 1 mM MgCl2 (MSA aptamers: 50 mM HEPES pH 7.4, 6 mM KCl, 150 mM NaCl, 2.5 mM CaCl2, 2.5 mM MgCl2), 0.1 mg/mL BSA, 0.02% Tween-20; ELONA 25 C in. The settings on record: protein: recombinant; tags: none; label: with or without biotin; SA-ATTO647N in flow cytometry.
Sequence of chemokine CCL17, untagged (Q92583 24-94): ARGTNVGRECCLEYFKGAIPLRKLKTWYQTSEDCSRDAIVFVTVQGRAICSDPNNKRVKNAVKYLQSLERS
Data set [6] has as its target T2, ACE2, His-tag (UniProt Q9BYF1 18-740). Described as above. The settings on record: protein: recombinant; tags: His; label: with or without biotin; SA-ATTO647N in flow cytometry.
For data set [7], the target named is SARS-CoV-2 spike S1, WT, His-tag (SARS-CoV-2 (WT), UniProt P0DTC2 16-685). In words: BLI. The settings on record: protein: recombinant; tags: His.
In data set [8] the target is T3, SARS-CoV-2 trimeric spike, WT, His-tag (SARS-CoV-2 (WT), UniProt P0DTC2). The data set can be described thus: ELONA. The settings on record: protein: recombinant; tags: 8xHis (flow cytometry); His.
For data set [9], the target named is SARS-CoV-2 spike RBD, WT, His-tag (SARS-CoV-2 (WT), UniProt P0DTC2 319-541). The data set can be described thus: BLI; BLI: PBS pH 7.4, 1 mM MgCl2 ([…]; flow cytometry 25 C ([…].
The target of data set [10] is SARS-CoV-2 trimeric spike, WT, C-tag (SARS-CoV-2 (WT), UniProt P0DTC2). The data set is described as above. The settings on record: protein: recombinant; tags: C-tag.
The target of data set [11] is T3, SARS-CoV-2 trimeric spike, WT, His-tag. In words: flow cytometry; 37 C; non-binding control. The settings on record: protein: recombinant, tags: 8xHis (flow cytometry).
Data set [12] has the same target. In words: BLI. The settings on record: protein: recombinant; tags: 8xHis (flow cytometry); His.
For data set [13], the target named is T1, SARS-CoV-2 trimeric spike, WT, His-tag. The settings on record: protein: recombinant, tags: 8xHis (flow cytometry), chain copies: 3, label: with or without biotin, SA-ATTO647N in flow cytometry.
Data set [14] deals with SARS-CoV-2 spike RBD, WT, His-tag (SARS-CoV-2 (WT), UniProt P0DTC2 319-541). In words: BLI; BLI: PBS pH 7.4, 1 mM MgCl2 ([…]; flow cytometry 25 C ([…]. The settings on record: protein: recombinant; tags: His; label: with or without biotin; SA-ATTO647N in flow cytometry.
The target of data set [15] is T3, SARS-CoV-2 trimeric spike, WT, His-tag. In words: flow cytometry. The settings on record: protein: recombinant, tags: 8xHis (flow cytometry).
Data set [16] has as its target SARS-CoV-2 spike RBD, WT, C-tag (SARS-CoV-2 (WT), UniProt P0DTC2 319-591). In words: BLI; BLI: PBS pH 7.4, 1 mM MgCl2 ([…]; flow cytometry 25 C ([…].
Data set [17] has as its target T2, ACE2, His-tag. The data set can be described thus: ELONA. The settings on record: protein: recombinant; tags: His; label: with or without biotin; SA-ATTO647N in flow cytometry.

T2 sequence (Q9BYF1 18-740): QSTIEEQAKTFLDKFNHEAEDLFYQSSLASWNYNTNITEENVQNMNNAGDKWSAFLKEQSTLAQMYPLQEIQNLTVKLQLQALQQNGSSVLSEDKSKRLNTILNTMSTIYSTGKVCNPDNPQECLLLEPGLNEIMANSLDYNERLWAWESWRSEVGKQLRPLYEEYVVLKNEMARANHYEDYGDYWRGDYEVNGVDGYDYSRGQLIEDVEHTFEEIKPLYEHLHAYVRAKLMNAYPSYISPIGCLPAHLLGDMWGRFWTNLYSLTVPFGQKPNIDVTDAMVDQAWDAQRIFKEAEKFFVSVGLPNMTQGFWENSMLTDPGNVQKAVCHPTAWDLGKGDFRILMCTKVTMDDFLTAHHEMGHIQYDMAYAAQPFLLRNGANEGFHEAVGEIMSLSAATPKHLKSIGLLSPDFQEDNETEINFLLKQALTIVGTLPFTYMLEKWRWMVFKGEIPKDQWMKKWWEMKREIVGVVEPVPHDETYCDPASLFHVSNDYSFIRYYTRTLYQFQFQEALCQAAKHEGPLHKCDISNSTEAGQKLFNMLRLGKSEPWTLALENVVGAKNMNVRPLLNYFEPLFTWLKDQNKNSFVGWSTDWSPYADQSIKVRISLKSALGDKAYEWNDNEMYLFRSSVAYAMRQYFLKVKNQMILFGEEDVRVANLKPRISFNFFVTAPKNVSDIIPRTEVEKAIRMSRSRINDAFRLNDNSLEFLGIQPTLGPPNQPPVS

As for CTTCCACGGGTTTGGCGTCGGGCCTGGCGGGGGGATAGTGCGGTGGAAG (ssDNA) [MSA5-T4], the binding result in data set [1] was “binds”; in [2] it was “binds”; in data set [3], “no binding”; in data set [4] it was “no binding”; in [5], “no binding”; in the data set with ACE2, His-tag [6], “no binding”.

With CAACCCATGGTAGGTATTGCTTGGTAGGGATAGTGGGCTTG (ssDNA) [SP6.41], the binding result in data set [7] is “no binding”; in data set [8], “binds”; in data set [9] it was “no binding”; in data set [10], “binds”.

Turning to CCCATGGTAGGTATTGCTTGGTAGCGATAGTGGG (ssDNA) [SP6.34C], in data set [11], the binding result was “no binding”.

Turning to TCCGGTTAATTTATGCTCTACCCGTCCACCTACCGGA (ssDNA) [MSA1-T3], the binding result in data set [12] is “binds”; in [9], “no binding”; in data set [10] it was “no binding”.

On to CGCAGCACCCAAGAACAAGGACTGCTTAGGATTGCGATAGGTTCGG (ssDNA) [CoV2-6C3], for which the binding result was “binds” in [1]; “binds” in data set [13]; “no binding” in data set [3]; “binds” in [14]; “binds” in [4].

B1: Aptamer-2 (ssDNA)
DNA: ATCCAGAGTGACGCAGCAATTACCGATGGCTTGTTTGTAATGTAGGGTTCCGTCGGATTGGACACGGTGGCTTAGT
Regarding B1, the binding result is “binds” in [7], “binds” in data set [12], “binds” in data set [9] and “no binding” in data set [10].

B2: RBD-PB6 (XNA)
RNA: GGGGCCACCAACGACAUUUGUAAUUCCUGGACCGAUACUUCCGUCAGGACAGAGGUUGAUAUAAAUAGUGCCCAUGGAUCC
modifications: 2'-F-modified RNA
B2: the binding result in data set [7], in data set [15], in data set [9], in data set [16] and in data set [10] was “binds” in each case.

B3: Aptamer-1 (ssDNA)
DNA: ATCCAGAGTGACGCAGCATCGAGTGGCTTGTTTGTAATGTAGGGTTCCGGTCGTGGGTTGGACACGGTGGCTTAGT
In the case of B3, the binding result in data set [7] is recorded as “binds”; in data set [12] it was “binds”; in [9], “binds”; in [10], “no binding”.

B4: CoV2-RBD-1C (ssDNA)
DNA: CAGCACCGACCTTGTGCTTTGGGAGTGCTGGTCCAAGGGCGTTAATGGACA
Regarding B4, the binding result is “binds” in data set [1], “binds” in data set [13], “no binding” in data set [3] and “binds” in [14].

B5: CoV2-RBD-4C (ssDNA)
DNA: ATCCAGAGTGACGCAGCATTTCATCGGGTCCAAAAGGGGCTGCTCGGGATTGCGGATATGGACACGT
Regarding B5, the binding result in [1] was “binds”; with ACE2, His-tag [17] it was “binds”; in data set [13] it was “binds”; in [3], “no binding”; in data set [14], “binds”.

B6: nCoV-S1-A2 (ssDNA)
DNA: AGCAGCACAGAGGTCAGATGGCAGCTAAGCAGGCGGCTCACAAAACCATTCGCATGCGGCCCTATGCGTGCTACCGTGAA
As to B6, the binding result in data set [9] is listed as “no binding”.
